Experimental data as given in patent US20120196804A1 (INDIANA UNIVERSITY RESEARCH AND TECHNOLOGY, published 2012).

What was measured:
glucagon receptor = experiment: cell-based or functional assay
GLP-1 receptor = experiment: cell-based or functional assay

Binder | cAMP Induction, EC50 (luciferase reporter, HEK293) (glucagon receptor) | cAMP Induction, EC50 (luciferase reporter, HEK293) (GLP-1 receptor)
HSQGTFTSDYSRYLDSRRAQDFVQWLMNK [Glucagon R12 K29] | 0.81 nM | 0.41 nM
HSQGTFTSDYSKYLDSRRAQDFVQWLMNTKRNR [Oxyntomodulin KRNR] | 2.77 nM | 3.21 nM
HSQGTFTSDYSKYLDSRRAQDFVQWLMNTGPSSGAPPPS (C-terminal amide) [Glucagon-Cex] | 0.25 nM | 2.75 nM
